One variant from IntAct's records for PubMed 20526328 can be followed below.

The chains are these.
B1: Kinesin-like protein KIF17 (Homo sapiens), Q9P2E2 (parent)
chain: MASEAVKVVVRCRPMNQRERELRCQPVVTVDCARAQCCIQNPGAADEPPKQFTFDGAYHVDHVTEQIYNEIAYPLVEGVTEGYNGTIFAYGQTGSGKSFTMQGLPDPPSQRGIIPRAFEHVFESVQCAENTKFLVRASYLEIYNEDVRDLLGADTKQKLELKEHPEKGVYVKGLSMHTVHSVAQCEHIMETGWKNRSVGYTLMNKDSSRSHSIFTISIEMSAVDERGKDHLRAGKLNLVDLAGSERQSKTGATGERLKEATKINLSLSALGNVISALVDGRCKHVPYRDSKLTRLLQDSLGGNTKTLMVACLSPADNNYDETLSTLRYANRAKNIRNKPRINEDPKDALLREYQEEIKKLKAILTQQMSPSSLSALLSRQVPPDPVQVEEKLLPQPVIQHDVEAEKQLIREEYEERLARLKADYKAEQESRARLEEDITAMRNSYDVRLSTLEENLRKETEAVLQVGVLYKAEVMSRAEFASSAEYPPAFQYETVVKPKVFSTTDTLPSDDVSKTQVSSRFAELPKVEPSKSEISLGSSESSSLEETSVSEAFPGPEEPSNVEVSMPTEESRSRYFLDECLGQEAAGHLLGEQNYLPQEEPQEVPLQGLLGLQDPFAEVEAKLARLSSTVARTDAPQADVPKVPVQVPAPTDLLEPSDARPEAEAADDFPPRPEVDLASEVALEVVRTAEPGVWLEAQAPVALVAQPEPLPATAGVKRESVGMEVAVLTDDPLPVVDQQQVLARLQLLEQQVVGGEQAKNKDLKEKHKRRKRYADERRKQLVAALQNSDEDSGDWVLLNVYDSIQEEVRAKSKLLEKMQRKLRAAEVEIKDLQSEFQLEKIDYLATIRRQERDSMLLQQLLEQVQPLIRRDCNYSNLEKILRESCWDEDNGFWKIPHPVITKTSLPVAVSTGPQNKPARKTSAADNGEPNMEDDRYRLMLSRSNSENIASNYFRSKRASQILSTDARKSLTHHNSPPGLSCPLSNNSAIPPTQAPEMPQPRPFRLESLDIPFTKAKRKKSKSNFGSEPL

The variants in the test derive from B1. Conditions: with tnpo1_human TNPO1, Q92973.
Chain of tnpo1_human TNPO1, Q92973 (Q92973 whole entry): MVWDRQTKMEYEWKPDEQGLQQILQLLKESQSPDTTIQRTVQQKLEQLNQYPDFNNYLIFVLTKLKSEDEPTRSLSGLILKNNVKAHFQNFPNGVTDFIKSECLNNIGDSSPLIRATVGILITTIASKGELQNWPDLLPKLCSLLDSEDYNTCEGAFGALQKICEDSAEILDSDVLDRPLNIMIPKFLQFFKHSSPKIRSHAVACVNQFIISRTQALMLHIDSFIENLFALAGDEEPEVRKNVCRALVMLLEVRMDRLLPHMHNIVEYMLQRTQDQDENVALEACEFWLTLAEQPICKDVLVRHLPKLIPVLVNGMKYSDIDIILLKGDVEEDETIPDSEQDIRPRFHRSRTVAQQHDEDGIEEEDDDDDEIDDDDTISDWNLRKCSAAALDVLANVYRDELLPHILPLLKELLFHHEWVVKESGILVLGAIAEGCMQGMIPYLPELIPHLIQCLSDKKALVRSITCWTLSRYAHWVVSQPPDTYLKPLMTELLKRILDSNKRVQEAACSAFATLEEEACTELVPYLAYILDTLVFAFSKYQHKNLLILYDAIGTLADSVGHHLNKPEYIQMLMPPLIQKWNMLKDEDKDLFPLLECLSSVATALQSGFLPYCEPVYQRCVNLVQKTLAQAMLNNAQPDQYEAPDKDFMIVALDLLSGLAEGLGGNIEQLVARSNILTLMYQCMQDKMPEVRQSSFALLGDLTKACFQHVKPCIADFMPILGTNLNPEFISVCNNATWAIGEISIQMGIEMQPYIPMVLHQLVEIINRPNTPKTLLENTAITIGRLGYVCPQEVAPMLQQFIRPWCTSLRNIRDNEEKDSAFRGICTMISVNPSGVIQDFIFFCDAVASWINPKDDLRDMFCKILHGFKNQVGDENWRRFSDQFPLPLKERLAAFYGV
On to K1016A;R1017A;K1018A;K1019A, for which the “effect of a mutation on the interaction” value is on record as “disrupting interaction strength”.
